Data published in patent publication US20120219565A1 (Merck Sharp & Dohme, published 2012).
Values joined by “and” are separate entries in the source; they are usually repeats but may differ in a detail not shown here. Equal entries are not always repeated.

B1: Humanized anti hu TSLP mAb 23B12 (comprising the heavy chain of SEQ ID NO:11 and the light chain of SEQ ID NO:12 of the instant application) (antibody, human IgG1, kappa, V domains shown)
VH: QVQLVQSGAEVKKPGASVKVSCKASGYIFTDYAMHWVRQAPGQGLEWMGTFIPLLDTSDYAQKFQGRVTMTADTSTSTAYMELRSLRSDDTAVYYCARMGVTHSYVMDAWGQGTLVTVSS
VL: EIVLTQSPGTLSLSPGERATLSCRASQPISISVHWYQQKPGQAPRLLIYFASQSISGIPDRFSGSGSGTDFTLTISRLEPEDFAVYYCQQTFSLPYTFGQGTKVEIKR
notes: Vector deposited as ATCC PTA-10482; also called Antibody 4
B2: Parental rat antibody 23B12 (antibody, from a related filing, V domains shown)
VH: EEKLQQSGDDLVRPGAAVKMSCKASGYIFTDYAMHWVKQRPGQGLEWIGTFIPLLDTSDYNQNFKGRATLTADKSSNTAYMELSRLTSEDSAVYYCARMGVTHSYVMDAWGQGASVTVSS
VL: DIVLTQSPATLSVTPGESVSLSCRASQPISISVHWFQQKSNESPRLLIKFASQSISGIPSRFSGSGSGTDFTLNINRVESEDFSVYYCQQTFSLPYTFGTGTKLELKR

Columns and labels:
[1] = molecular target: T1, Recombinant human TSLP (expressed in HEK293 cells) (human, UniProt Q969D9 29-159); assay: KinExA 3000, solution equilibrium, 25 °C, particles coated with biotinylated human TSLP
T1 construct: In KinExA a biotinylated form coated the particles and the unlabelled form was in solution; also called hu TSLP; hTSLP

[2] = molecular target: T2, Cynomolgus monkey TSLP (expressed in HEK293 cells) (cynomolgus monkey, UniProt A0A7N9CAT7 29-159); assay: SPR, BIAcore T100, TSLP immobilised on CM5, antibody injected, bivalent analyte model, room temperature
T2 construct: also called cyno TSLP; cTSLP

[3] = molecular target: T3, Human TSLP purchased from R&D and expressed in E. coli (human, UniProt Q969D9 29-159); assay: SPR, BIAcore T100, R&D E. coli TSLP immobilised on CM5, antibody injected, bivalent analyte model, room temperature
T3 construct: Bought preparation; also called human (R&D)*; hTSLP*

[4] = molecular target: T3, Human TSLP purchased from R&D and …; assay: SPR, BIAcore T100, R&D E. coli TSLP immobilised on CM5, antibody injected, bivalent analyte model, 37 °C
[5] = molecular target: T2, Cynomolgus monkey TSLP (expressed in …); assay: cell-based or functional assay
[6] = molecular target: T1, Recombinant human TSLP (expressed in …); assay: cell-based or functional assay
[7] = molecular target: T3, Human TSLP purchased from R&D and …; assay: cell-based or functional assay
[8] = molecular target: T2, Cynomolgus monkey TSLP (expressed in …); assay: SPR, BIAcore T100, TSLP immobilised on CM5, antibody injected, bivalent analyte model, 37 °C
[9] = molecular target: Cynomolgus monkey TSLP (expressed in HEK293 cells) (cynomolgus monkey); assay: SPR, BIAcore T100, TSLP immobilised on CM5, antibody injected, bivalent analyte model, room temperature
[10] = molecular target: Recombinant human TSLP (expressed in HEK293 cells) (human) (UniProt Q969D9); assay: as above
[11] = molecular target: Recombinant human TSLP (expressed in HEK293 cells) (human) (UniProt Q969D9); assay: KinExA 3000, solution equilibrium, 25 °C, particles coated with biotinylated human TSLP
[12] = molecular target: Cynomolgus monkey TSLP (expressed in HEK293 cells) (cynomolgus monkey); assay: cell-based or functional assay
[13] = molecular target: Human TSLP purchased from R&D and expressed in E. coli (human) (UniProt Q969D9); assay: cell-based or functional assay
[14] = molecular target: Recombinant human TSLP (expressed in HEK293 cells) (human) (UniProt Q969D9); assay: cell-based or functional assay

| Binder | Kd [1] | Kd [2] | Kd [3] | Kd [4] | EC 50, inhibition of TSLP-induced proliferation of Ba/F3-TSLPR-IL7Ra cells [5] | EC 50, inhibition of TSLP-induced proliferation of Ba/F3-TSLPR-IL7Ra cells [6] | EC 50, inhibition of TSLP-induced proliferation of Ba/F3-TSLPR-IL7Ra cells [7] | Kd [8] | Kd [9] | Kd [10] | Kd [11] | EC 50, inhibition of TSLP-induced proliferation of Ba/F3-TSLPR-IL7Ra cells [12] | EC 50, inhibition of TSLP-induced proliferation of Ba/F3-TSLPR-IL7Ra cells [13] | EC 50, inhibition of TSLP-induced proliferation of Ba/F3-TSLPR-IL7Ra cells [14] |
| --- | --- | --- | --- | --- | --- | --- | --- | --- | --- | --- | --- | --- | --- | --- |
| B1 | 0.0032 nM | 0.138 nM and 0.08 nM and 0.115 nM and 0.127 nM | 0.339 nM | 0.299 nM | 0.117 µg/mL and 0.077 µg/mL and 0.158 µg/mL and 0.067 µg/mL | 0.041 µg/mL and 0.024 µg/mL | 0.137 µg/mL and 0.215 µg/mL | 0.381 nM | – | – | – | – | – | – |
| B2 | – | – | – | – | – | – | – | – | 0.159 nM | 0.141 nM and 0.13 nM | 0.0011 nM | 0.064 µg/mL and 0.122 µg/mL and 0.054 µg/mL | 0.083 µg/mL | 0.022 µg/mL and 0.025 µg/mL and 0.014 µg/mL |
